This note sets out measurements from patent publication US20180303952A1 (CYTOMX THERAPEUTICS, published 2018).

Numbering of substitutions follows the chain as printed.

Experiment [1] has as its target T1, human CD147 protein (adsorbed to ELISA plates) (human, UniProt P35613-2 22-205, limits assumed).
T1 construct: also called human CD147 polypeptide; Basigin
T1 sequence (looked up): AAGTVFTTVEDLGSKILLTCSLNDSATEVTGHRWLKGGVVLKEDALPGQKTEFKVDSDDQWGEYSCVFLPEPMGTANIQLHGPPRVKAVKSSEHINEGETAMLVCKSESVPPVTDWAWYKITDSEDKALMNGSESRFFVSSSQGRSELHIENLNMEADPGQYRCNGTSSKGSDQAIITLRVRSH
Briefly: ELISA, human CD147 protein adsorbed to plate, intact activatable antibody; apparent KD. How it is done: Humanized anti-human CD147 antibodies of the present disclosure hu 3A11 Hc1/Lc1 (VL of SEQ ID NO: 5 and VH of SEQ ID NO: 1) were used as a control.
Using a standard ELISA protocol, human CD147 protein was absorbed to ELISA plates and subsequently incubated with the indicated concentration of antibody of the present disclosure. Bound humanized activatable antibody of the present disclosure was detected with anti-human Fab-peroxidase secondary antibody and Ultra TMB detection (Thermo Fisher Scientific).

The target in experiment [2] is T1, human CD147 protein (adsorbed to ELISA …). The experiment is described as above. The procedure:
For the exemplary assay depicted in FIGS. 7A-7C, standard ELISA protocol was used, in which human CD147 protein was absorbed to ELISA plates and subsequently incubated with the indicated concentration of antibody of the present disclosure. Bound humanized activatable antibody of the present disclosure was detected with anti-human Fab-peroxidase secondary antibody and Ultra TMB detection (Thermo Fisher Scientific).
This is another data set of the same source.

Experiment [3] shares this target. Put plainly: ELISA, human CD147 protein adsorbed to plate, anti-human Fab-peroxidase detection; apparent KD. How it is done:
The antibodies of the present disclosure that were assayed in this exemplary study were hu 3A11 Lc1/hu 3A11 Hc1 (VL of SEQ ID NO: 5 and VH of SEQ ID NO: 1), hu 3A11 Lc2/hu 3A11 Hc2 (VL of SEQ ID NO: 6 and VH of SEQ ID NO: 2), hu 3A11 Lc4/hu 3A11 Hc2 (VL of SEQ ID NO: 8 and VH of SEQ ID NO: 2). Using a standard ELISA protocol, human CD147 protein was absorbed to ELISA plates and subsequently incubated with the indicated concentration of antibody of the present disclosure. Bound humanized antibody of the present disclosure was detected with anti-human Fab-peroxidase secondary antibody, and Ultra TMB detection (Thermo Fisher Scientific).

B1: anti-human CD147 activatable antibody hu 3A11 Hc1/Lc1-217-3001 (antibody)
VH: EVQLVESGGGLVQPGGSLRLSCAASGFTFSNYWMDWVRQAPGKGLEWVGEIRLKSYNYATHYAASVKGRFTISRDDSKNSVYLQMNSLKTEDTAVYYCTAAGTDYWGQGTLVTVSS
VL: QSLFCSGFRCDQYASGGGSSGGSAVGLLAPPGGLSGRSDNHGGSDIQMTQSPSSLSASVGDRVTITCRASQSVRTDVGWYQQKPGKAPKLLIYYSSNRYTGVPSRFSGSGSGTDFTLTISSLQPEDFATYYCQQDYSSPYTFGQGTKLEIK
notes: also called hu 3A11-217-3001
B1: the Kd in experiment [1] came to 1.61 nM.

B2: anti-human CD147 activatable antibody hu 3A11 Hc1/Lc1-416-3001 (antibody)
VH: B1 VH
VL: WQRECSQKNICQYYIGGGSSGGSAVGLLAPPGGLSGRSDNHGGSDIQMTQSPSSLSASVGDRVTITCRASQSVRTDVGWYQQKPGKAPKLLIYYSSNRYTGVPSRFSGSGSGTDFTLTISSLQPEDFATYYCQQDYSSPYTFGQGTKLEIK
notes: also called hu 3A11-416-3001
As for B2, the Kd in experiment [1] stood at 0.49 nM.

B3: anti-human CD147 activatable antibody hu 3A11 Hc1/Lc1-216-3001 (antibody)
VH: B1 VH
VL: HGPCHYNFNSGCAQFGGGSSGGSAVGLLAPPGGLSGRSDNHGGSDIQMTQSPSSLSASVGDRVTITCRASQSVRTDVGWYQQKPGKAPKLLIYYSSNRYTGVPSRFSGSGSGTDFTLTISSLQPEDFATYYCQQDYSSPYTFGQGTKLEIK
notes: also called hu 3A11-216-3001
Consider B3, for which the Kd in experiment [1] amounted to 0.89 nM.

B4: anti-human CD147 activatable antibody hu 3A11 Hc1/Lc1-414.1-3001 (antibody, V domains shown)
VH: B1 VH
VL: THGPCHFKPNCGGGSSGGSAVGLLAPPGGLSGRSDNHGGSDIQMTQSPSSLSASVGDRVTITCRASQSVRTDVGWYQQKPGKAPKLLIYYSSNRYTGVPSRFSGSGSGTDFTLTISSLQPEDFATYYCQQDYSSPYTFGQGTKLEIK
notes: also called hu 3A11-414.1-3001
For the molecule B4, the Kd in experiment [2] was determined as 13.8 nM.

B5: humanized anti-human CD147 antibody hu 3A11 Lc2/hu 3A11 Hc2 (antibody, V domains shown)
VH: B1 VH with D35N, V81L, T99A, A100R
VL: DIQMTQSPSSLSASVGDRVTITCKASQSVRTDVAWYQQKPGKAPKLLIYYSSNRYTGVPSRFSGSGSGTDFTLTISSLQPEDFATYYCQQDYSSPFTFGQGTKLEIK
notes: also called hu 3A11 (hu Lc2/hu Hc2)
For B5, the Kd in experiment [3] came to 0.726 nM.

B6: anti-human CD147 activatable antibody hu 3A11 Hc1/Lc1-419.2-3001 (antibody, V domains shown)
VH: B1 VH
VL: LHGPCHYDLKCKNNGGGSSGGSAVGLLAPPGGLSGRSDNHGGSDIQMTQSPSSLSASVGDRVTITCRASQSVRTDVGWYQQKPGKAPKLLIYYSSNRYTGVPSRFSGSGSGTDFTLTISSLQPEDFATYYCQQDYSSPYTFGQGTKLEIK
notes: also called hu 3A11-419.2-3001
Consider B6, for which the Kd in experiment [2] turned out to be 20.8 nM.

B7: anti-human CD147 activatable antibody hu 3A11 Hc1/Lc1-415.1-2012 (antibody, V domains shown)
VH: B1 VH
VL: LHGPCHFNNCNTLGGGSSGGSISSGLLSGRSANPGGGSDIQMTQSPSSLSASVGDRVTITCRASQSVRTDVGWYQQKPGKAPKLLIYYSSNRYTGVPSRFSGSGSGTDFTLTISSLQPEDFATYYCQQDYSSPYTFGQGTKLEIK
notes: also called hu 3A11-415.1-2012
As for B7, the Kd in experiment [2] stood at 4.68 nM.

B8: anti-human CD147 activatable antibody hu 3A11 Hc1/Lc1-419-3001 (antibody)
VH: B1 VH
VL: LHGPCHYDLKCKNNTGGGSSGGSAVGLLAPPGGLSGRSDNHGGSDIQMTQSPSSLSASVGDRVTITCRASQSVRTDVGWYQQKPGKAPKLLIYYSSNRYTGVPSRFSGSGSGTDFTLTISSLQPEDFATYYCQQDYSSPYTFGQGTKLEIK
notes: also called hu 3A11-419-3001
Consider B8, for which the Kd in experiment [1] is 9.43 nM.

B9: anti-human CD147 activatable antibody hu 3A11 Hc1/Lc1-440-3001 (antibody)
VH: B1 VH
VL: TCLHLTRFNYLSCNKGGGSSGGSAVGLLAPPGGLSGRSDNHGGSDIQMTQSPSSLSASVGDRVTITCRASQSVRTDVGWYQQKPGKAPKLLIYYSSNRYTGVPSRFSGSGSGTDFTLTISSLQPEDFATYYCQQDYSSPYTFGQGTKLEIK
notes: also called hu 3A11-440-3001
As to B9, the Kd in experiment [1] was determined as 1.23 nM.

B10: anti-human CD147 activatable antibody hu 3A11 Hc1/Lc1-419.3-2012 (antibody, V domains shown)
VH: B1 VH
VL: LHGPCHYDLKCKGGGSSGGSISSGLLSGRSANPGGGSDIQMTQSPSSLSASVGDRVTITCRASQSVRTDVGWYQQKPGKAPKLLIYYSSNRYTGVPSRFSGSGSGTDFTLTISSLQPEDFATYYCQQDYSSPYTFGQGTKLEIK
notes: also called hu 3A11-419.3-2012
As to B10, in experiment [2], the Kd is 10 nM.

B11: anti-human CD147 activatable antibody hu 3A11 Hc1/Lc1-419.3-3001 (antibody, V domains shown)
VH: B1 VH
VL: LHGPCHYDLKCKGGGSSGGSAVGLLAPPGGLSGRSDNHGGSDIQMTQSPSSLSASVGDRVTITCRASQSVRTDVGWYQQKPGKAPKLLIYYSSNRYTGVPSRFSGSGSGTDFTLTISSLQPEDFATYYCQQDYSSPYTFGQGTKLEIK
notes: also called hu 3A11-419.3-3001
In the case of B11, in experiment [2], the Kd turned out to be 73.5 nM.

B12: anti-human CD147 activatable antibody hu 3A11 Hc1/Lc1-414.3-2012 (antibody, V domains shown)
VH: B1 VH
VL: THGPCHFKPNCAYPTGGGSSGGSISSGLLSGRSANPGGGSDIQMTQSPSSLSASVGDRVTITCRASQSVRTDVGWYQQKPGKAPKLLIYYSSNRYTGVPSRFSGSGSGTDFTLTISSLQPEDFATYYCQQDYSSPYTFGQGTKLEIK
notes: also called hu 3A11-414.3-2012
On to B12, for which the Kd in experiment [2] turned out to be 5.92 nM.

B13: anti-human CD147 activatable antibody hu 3A11 Hc1/Lc1-414.2-3001 (antibody)
VH: B1 VH
VL: B8 VL with L1T, Y7F, D8K, L9P, K10Q, K12S, N13Y, N14P
notes: also called hu 3A11-414.2-3001
For B13, the Kd in experiment [2] is 15.7 nM.

B14: anti-human CD147 activatable antibody hu 3A11 Hc1/Lc1-253-3001 (antibody)
VH: B1 VH
VL: B8 VL with L1V, Y7W, D8S, L9V, K10E, K12L, N13S, T15V
notes: also called hu 3A11-253-3001
For B14, the Kd in experiment [1] amounted to 0.87 nM.

B15: anti-human CD147 activatable antibody hu 3A11 Hc1/Lc1-414.3-3001 (antibody)
VH: B1 VH
VL: B8 VL with L1T, Y7F, D8K, L9P, K10N, K12A, N13Y, N14P
notes: also called hu 3A11-414.3-3001
B15: the Kd in experiment [2] worked out at 20.2 nM.

B16: anti-human CD147 activatable antibody hu 3A11 Hc1/Lc1-414-3001 (antibody)
VH: B1 VH
VL: B8 VL with L1T, Y7F, D8K, L9P, K10N, K12S, N13Y, N14P
notes: also called hu 3A11-414-3001
With B16, the values for the Kd in experiment [2] and in experiment [1] were 24.7 nM and 16 nM, respectively.

B17: anti-human CD147 activatable antibody hu 3A11 Hc1/Lc1-415-2012 (antibody, V domains shown)
VH: B1 VH
VL: B12 VL with T1L, K8N, P9N, N10C, C11N, A12T, Y13L, P14K, T15L
notes: also called hu 3A11-415-2012
Turning to B17, the Kd in experiment [2] turned out to be 1.43 nM.

B18: anti-human CD147 activatable antibody hu 3A11 Hc1/Lc1-221-3001 (antibody)
VH: B1 VH
VL: B8 VL with L1D, D8V, L9S, K10C, C11T, K12T, N13I, T15H
notes: also called hu 3A11-221-3001
In the case of B18, the Kd in experiment [1] was found to be 2.5 nM.

B19: anti-human CD147 activatable antibody hu 3A11 Hc1/Lc1-415-3001 (antibody)
VH: B1 VH
VL: B8 VL with Y7F, D8N, L9N, K10C, C11N, K12T, N13L, N14K, T15L
notes: also called hu 3A11-415-3001
B19: the Kd in experiment [1] stood at 4.72 nM.

B20: anti-human CD147 activatable antibody hu 3A11 Hc1/Lc1-215-3001 (antibody)
VH: B1 VH
VL: RYQSCHSYWCTEGNHGGGSSGGSAVGLLAPPGGLSGRSDNHGGSDIQMTQSPSSLSASVGDRVTITCRASQSVRTDVGWYQQKPGKAPKLLIYYSSNRYTGVPSRFSGSGSGTDFTLTISSLQPEDFATYYCQQDYSSPYTFGQGTKLEIK
notes: also called hu 3A11-215-3001
B20: in experiment [1], the Kd was determined as 5.53 nM.

B21: anti-human CD147 activatable antibody hu 3A11 Hc1/Lc1-419.1-3001 (antibody)
VH: B1 VH
VL: B8 VL with N13Q
notes: also called hu 3A11-419.1-3001
For the molecule B21, the Kd in experiment [2] was determined as 44 nM.

B22: anti-human CD147 activatable antibody hu 3A11 Hc1/Lc1-428-3001 (antibody)
VH: B1 VH
VL: B8 VL with L1W, D8T, L9K, K10C, C11D, K12D, N13H, N14T, T15M
notes: also called hu 3A11-428-3001
In the case of B22, the Kd in experiment [1] amounted to 7.63 nM.

B23: anti-human CD147 activatable antibody hu 3A11 Hc1/Lc1-422-3001 (antibody)
VH: B1 VH
VL: B8 VL with D8M, L9N, K10T, K12H, N14V, T15K
notes: also called hu 3A11-422-3001
With B23, in experiment [1], the Kd was determined as 1.55 nM.

B24: anti-human CD147 activatable antibody hu 3A11 Hc1/Lc1-414.4-2012 (antibody, V domains shown)
VH: B1 VH
VL: B12 VL with K8R
notes: also called hu 3A11-414.4-2012
With B24, the Kd in experiment [2] was 6.73 nM.

B25: anti-human CD147 activatable antibody hu 3A11 Hc1/Lc1-443-3001 (antibody)
VH: B1 VH
VL: B8 VL with L1A, D8N, L9T, K10E, K12N, N13S, T15K
notes: also called hu 3A11-443-3001
As for B25, in experiment [1], the Kd stood at 7.4 nM.

B26: anti-human CD147 activatable antibody hu 3A11 Hc1/Lc1-445-3001 (antibody)
VH: B1 VH
VL: B8 VL with L1S, Y7F, L9Y, K10Q, K12I
notes: also called hu 3A11-445-3001
Turning to B26, the Kd in experiment [1] worked out at 7.86 nM.
